Source: article PMC10250827
*1 amine or outer side, *2 acyl side, *3 side chain or, on linkers, in order; H or OH if unused. Glutaryl = O=C(CCCC(=O)[*:2])[*:1]; Suc = O=C(CCC(=O)[*:2])[*:1]

B1: CHP-026, linear peptide CH3-CO-KTGDEK-K-GG-…-NH2 (peptide)
peptide: Ac-KTGDEKKGGYGRKKRRQRRR-NH2
B2: CHP-027, pre-cyclic peptidomimetic CO-(CH2)3-CO2H KTGDEK-K-GG-…-NH2 (peptide)
peptide: Glutaryl-KTGDEKKGGYGRKKRRQRRR-NH2
SMILES: C[C@@H](O)[C@H](NC(=O)[C@H](CCCCN)NC(=O)CCCC(=O)O)C(=O)NCC(=O)N[C@@H](CC(=O)O)C(=O)N[C@@H](CCC(=O)O)C(=O)N[C@@H](CCCCN)C(=O)N[C@@H](CCCCN)C(=O)NCC(=O)NCC(=O)N[C@@H](Cc1ccc(O)cc1)C(=O)NCC(=O)N[C@@H](CCCNC(=N)N)C(=O)N[C@@H](CCCCN)C(=O)N[C@@H](CCCCN)C(=O)N[C@@H](CCCNC(=N)N)C(=O)N[C@@H](CCCNC(=N)N)C(=O)N[C@@H](CCC(N)=O)C(=O)N[C@@H](CCCNC(=N)N)C(=O)N[C@@H](CCCNC(=N)N)C(=O)N[C@@H](CCCNC(=N)N)C(N)=O
B3: CHP-028, pre-cyclic peptidomimetic CO-(CH2)2-CO2H KTGDEK-K-GG-…-NH2 (peptide)
peptide: Suc-KTGDEKKGGYGRKKRRQRRR-NH2
SMILES: C[C@@H](O)[C@H](NC(=O)[C@H](CCCCN)NC(=O)CCC(=O)O)C(=O)NCC(=O)N[C@@H](CC(=O)O)C(=O)N[C@@H](CCC(=O)O)C(=O)N[C@@H](CCCCN)C(=O)N[C@@H](CCCCN)C(=O)NCC(=O)NCC(=O)N[C@@H](Cc1ccc(O)cc1)C(=O)NCC(=O)N[C@@H](CCCNC(=N)N)C(=O)N[C@@H](CCCCN)C(=O)N[C@@H](CCCCN)C(=O)N[C@@H](CCCNC(=N)N)C(=O)N[C@@H](CCCNC(=N)N)C(=O)N[C@@H](CCC(N)=O)C(=O)N[C@@H](CCCNC(=N)N)C(=O)N[C@@H](CCCNC(=N)N)C(=O)N[C@@H](CCCNC(=N)N)C(N)=O

Legend:
[1] = target: Heat shock protein 90 (Hsp90), protein immobilised on the FEB chip (UniProt P07900); experiment: field effect biosensing
[2] = target: Heat shock protein 90 (Hsp90), protein immobilised on the FEB chip (UniProt P07900); experiment: field effect biosensing; remark: listed apart in the source

Molecule | KD in the presence of CHP-028 (competitive binding) [1] | Kd [2]
Cell division cycle 37 (Cdc37), analyte protein in FEB (from UniProt Q16543 1-378) (natural protein) | 2.78 µM | –
B1 | – | 342 µM
B2 | – | 30 µM
B3 | – | 16.4 µM
